The subject of one data set is HeLa cells. In words: HeLa cell uptake, co-localization with lysosomes (confocal microscopy). It counts as cell-based. The note with it: 30 μM rhodamine-labeled ELP; 120 min; LysoTracker Green. As for the experimental part: Lysosomes were labeled by LysoTracker Green® having the structure:
In order to further validate the potential efficacy of CA192 working as a potent drug binding domain, an in vitro cell uptake study was performed. Briefly, CA192 and A192 was labeled with rhodamine and HeLa cell lysosome with LysoTracker Green (LTG)® having the structure as described herein. For the treatment group, HeLa cells were incubated with 30 μM of rhodamine-labeled (rh)-CA192 and 70 nM of LTG for 120 min. For the control group, HeLa cells were incubated with 30 μM of rhodamine-labeled (rh)-A192 and 70 nM of LTG for 120 min. Cells were then rinsed with warm HBSS three times, maintained in the fresh culture medium, and imaged by confocal microscopy. Images were acquired using a Zeiss laser scanning microscope 510 Meta NLO confocal imaging system equipped with Argon, red HeNe, green HeNe laser, and a Coherent Chameleon Ti-Sapphire laser (LSM) mounted on a vibration-free table (Carl Zeiss, Thornwood, N.Y.). All images were acquired using a Plan-Apochromat 63× Oil immersion lens with a working distance of 0.19 mm.

Data set [1] is described as follows: Dynamic light scattering (DLS) hydrodynamic radius and stability. It is filed as physicochemical. The note with it: DLS intensity; 20 μM. Here is the method:
FIGS. 5A-5D: CA192 (SEQ ID NO: 3) has a good stability in terms of hydrodynamic radius. There are two fractions present in the CA192 (SEQ ID NO: 3) solution: an aggregated form and dimeric form. A dimerized form has similar hydrodynamic radius, Rh as A192. […] Drug-loaded CA192 (SEQ ID NO: 3) has a mean Rh of 64.5±0.5 nm (p<0.05). […] (FIG. 5C) Size Exclusion Chromatography (SEC) was conducted to fractionate CA192 (SEQ ID NO: 3) depending on their particle size. Two fractions were observed. […] In contrast, the fraction 1 contains a mixture of larger aggregates.
The hydrodynamic radius (Rh) of both the loaded and unloaded fusion protein, along with plain A192, was measured via dynamic light scattering (DLS) using a DynaPro Plate Reader II from Wyatt Technology. Before the DLS measurement, solutions were filtered through […] pore size filters. The concentration of each solution was then adjusted to 20 μM. 60 μL from each sample was pipetted into three different wells on the plate reader and covered by 15 μL mineral oil each to avoid solvent evaporation. […] Briefly, the fusion solution was incubated at 37° C. for different periods of time up to 48 h and the mean Rh of CA192 at these different time points was measured with DLS. […] (FIG. 5D) Through measuring the CA192 concentration of both fractions, Applicants determined that 20.8% by mass in solution is represented by the multimerized particles. […]

A short description of data set [2]: ATRA encapsulation in 4PA, two phase method, HPLC. It is filed as physicochemical. Particulars: control ELP. The source says:
FIG. 21: SDS PAGE was used to resolve the purified 4PA fusion protein. To formulate ATRA-loaded 4PA, a two phase encapsulation method was adopted. After removing undissolved drug, HPLC was used to quantify 4PA and ATRA concentrations. Encapsulation ratio, defined as CATRA/C4PA was 2.7, theoretical maximum being 4.

The nature of data set [3]: Phase transition temperature by optical density (UV-Vis, 350 nm) versus temperature. Particulars: mean ± 95% CI, Table 2. It is filed as physicochemical. Here is the method: The temperature with the maximum positive slope was defined as the phase transition temperature for each condition. (FIG. 2B) The concentration-temperature phase diagram was determined for both ELPs, and fit to the following equation: Tt=b−m Log10[CELP].
Both ELPs at different concentrations (5 μM to 100 μM) were subject to a precisely controlled temperature increase from 25 to 75° C. at a rate of 1° C./min. The Tt of ELPs is defined as the temperature at which the first derivative of the optical density with respect to the temperature reaches a maximum.

Where “and” joins values, the source holds several entries; their conditions need not be identical. Equal entries are not always repeated. Entries after “also recorded” stand apart in the source; their conditions may differ.

B1: (VPGAG)192 (protein)
chain: VPGAGVPGAGVPGAGVPGAGVPGAGVPGAGVPGAGVPGAGVPGAGVPGAGVPGAGVPGAGVPGAGVPGAGVPGAGVPGAGVPGAGVPGAGVPGAGVPGAGVPGAGVPGAGVPGAGVPGAGVPGAGVPGAGVPGAGVPGAGVPGAGVPGAGVPGAGVPGAGVPGAGVPGAGVPGAGVPGAGVPGAGVPGAGVPGAGVPGAGVPGAGVPGAGVPGAGVPGAGVPGAGVPGAGVPGAGVPGAGVPGAGVPGAGVPGAGVPGAGVPGAGVPGAGVPGAGVPGAGVPGAGVPGAGVPGAGVPGAGVPGAGVPGAGVPGAGVPGAGVPGAGVPGAGVPGAGVPGAGVPGAGVPGAGVPGAGVPGAGVPGAGVPGAGVPGAGVPGAGVPGAGVPGAGVPGAGVPGAGVPGAGVPGAGVPGAGVPGAGVPGAGVPGAGVPGAGVPGAGVPGAGVPGAGVPGAGVPGAGVPGAGVPGAGVPGAGVPGAGVPGAGVPGAGVPGAGVPGAGVPGAGVPGAGVPGAGVPGAGVPGAGVPGAGVPGAGVPGAGVPGAGVPGAGVPGAGVPGAGVPGAGVPGAGVPGAGVPGAGVPGAGVPGAGVPGAGVPGAGVPGAGVPGAGVPGAGVPGAGVPGAGVPGAGVPGAGVPGAGVPGAGVPGAGVPGAGVPGAGVPGAGVPGAGVPGAGVPGAGVPGAGVPGAGVPGAGVPGAGVPGAGVPGAGVPGAGVPGAGVPGAGVPGAGVPGAGVPGAGVPGAGVPGAGVPGAGVPGAGVPGAGVPGAGVPGAGVPGAGVPGAGVPGAGVPGAGVPGAGVPGAGVPGAGVPGAGVPGAGVPGAGVPGAGVPGAGVPGAGVPGAGVPGAGVPGAGVPGAGVPGAGVPGAGVPGAGVPGAGVPGAGVPGAGVPGAGVPGAGVPGAGVPGAGVPGAGVPGAGVPGAGVPGAGVPGAGVPGAGVPGAGVPGAGVPGAGVPGAG
Regarding B1, the co-localization with lysosomes result in the data set with HeLa cells is “obvious co-localization with lysosome; also recorded: co-localized with lysosomes; also recorded: co-localizing with lysosomes”. The “mean hydrodynamic radius (Rh)” value in data set [1] was 7.3±0.6 nm and 7.3±0.4 nm. Further, the “ATRA peak on HPLC after encapsulation” value in data set [2] was “not detectable”. The “Slope, m” value in data set [3] (fit Tt = b - m Log10[CELP]) is 8.3 ± 0.28 ° C./Log10(μM). In addition, the “Intercept, b” value in data set [3] (intercept at 1 μM) was found to be 72.3 ± 0.41 °C.
